Positions of bridges follow the written chain, without caps; N, C: chain ends.
B1: HW12 (peptide)
peptide: Ac-LVVEEDVLEEEIEQLEERNYALRKEIEDLQKQLEDL-NH2
notes: linear form of the pair HW12/HW13; NΔ24 CΔ3; source: synthetic peptide (Fmoc SPPS, split batch, RP-HPLC purified)
B2: HW10 (peptide)
peptide: Ac-LVVEEDVLEEEIEQLEEKNKALKDEIEDLQKQLEKLY-NH2
notes: linear form of the pair HW10/HW11; NΔ24 CΔ3 with point mutations for the bridging K and D; source: synthetic peptide (Fmoc SPPS, split batch, RP-HPLC purified)
B3: HW11 (peptide)
peptide: Ac-LVVEEDVLEEEIEQLEEKNKALKDEIEDLQKQLEKLY-NH2
modifications: lactam 20-24
SMILES: CC[C@H](C)[C@H](NC(=O)[C@H](CCC(=O)O)NC(=O)[C@@H]1CC(=O)NCCCC[C@H](NC(=O)[C@H](CC(N)=O)NC(=O)[C@H](CCCCN)NC(=O)[C@H](CCC(=O)O)NC(=O)[C@H](CCC(=O)O)NC(=O)[C@H](CC(C)C)NC(=O)[C@H](CCC(N)=O)NC(=O)[C@H](CCC(=O)O)NC(=O)[C@@H](NC(=O)[C@H](CCC(=O)O)NC(=O)[C@H](CCC(=O)O)NC(=O)[C@H](CCC(=O)O)NC(=O)[C@H](CC(C)C)NC(=O)[C@@H](NC(=O)[C@H](CC(=O)O)NC(=O)[C@H](CCC(=O)O)NC(=O)[C@H](CCC(=O)O)NC(=O)[C@@H](NC(=O)[C@@H](NC(=O)[C@H](CC(C)C)NC(C)=O)C(C)C)C(C)C)C(C)C)[C@@H](C)CC)C(=O)N[C@@H](C)C(=O)N[C@@H](CC(C)C)C(=O)N[C@@H](CCCCN)C(=O)N1)C(=O)N[C@@H](CCC(=O)O)C(=O)N[C@@H](CC(=O)O)C(=O)N[C@@H](CC(C)C)C(=O)N[C@@H](CCC(N)=O)C(=O)N[C@@H](CCCCN)C(=O)N[C@@H](CCC(N)=O)C(=O)N[C@@H](CC(C)C)C(=O)N[C@@H](CCC(=O)O)C(=O)N[C@@H](CCCCN)C(=O)N[C@@H](CC(C)C)C(=O)N[C@@H](Cc1ccc(O)cc1)C(N)=O
notes: cyclized form of the pair HW10/HW11; NΔ24 CΔ3; source: synthetic peptide (Fmoc SPPS, on-resin lactamization, RP-HPLC purified)
B4: HW13 (peptide)
peptide: Ac-LVVEEDVLEEEIEQLEERNYALRKEIEDLQKQLEDL-NH2
modifications: lactam 31-35
notes: cyclized form of the pair HW12/HW13; NΔ24 CΔ3; source: synthetic peptide (Fmoc SPPS, on-resin lactamization, RP-HPLC purified)
B5: HW15 (peptide)
peptide: Ac-EAEELVVEEDVLEEEIEQLEEKNKALKDEIEDLY-NH2
modifications: lactam 24-28
SMILES: CC[C@H](C)[C@H](NC(=O)[C@H](CCC(=O)O)NC(=O)[C@@H]1CC(=O)NCCCC[C@H](NC(=O)[C@H](CC(N)=O)NC(=O)[C@H](CCCCN)NC(=O)[C@H](CCC(=O)O)NC(=O)[C@H](CCC(=O)O)NC(=O)[C@H](CC(C)C)NC(=O)[C@H](CCC(N)=O)NC(=O)[C@H](CCC(=O)O)NC(=O)[C@@H](NC(=O)[C@H](CCC(=O)O)NC(=O)[C@H](CCC(=O)O)NC(=O)[C@H](CCC(=O)O)NC(=O)[C@H](CC(C)C)NC(=O)[C@@H](NC(=O)[C@H](CC(=O)O)NC(=O)[C@H](CCC(=O)O)NC(=O)[C@H](CCC(=O)O)NC(=O)[C@@H](NC(=O)[C@@H](NC(=O)[C@H](CC(C)C)NC(=O)[C@H](CCC(=O)O)NC(=O)[C@H](CCC(=O)O)NC(=O)[C@H](C)NC(=O)[C@H](CCC(=O)O)NC(C)=O)C(C)C)C(C)C)C(C)C)[C@@H](C)CC)C(=O)N[C@@H](C)C(=O)N[C@@H](CC(C)C)C(=O)N[C@@H](CCCCN)C(=O)N1)C(=O)N[C@@H](CCC(=O)O)C(=O)N[C@@H](CC(=O)O)C(=O)N[C@@H](CC(C)C)C(=O)N[C@@H](Cc1ccc(O)cc1)C(N)=O
notes: cyclized form of the pair HW14/HW15; NΔ20 CΔ10; source: synthetic peptide (Fmoc SPPS, on-resin lactamization, RP-HPLC purified)
B6: HW16 (peptide)
peptide: Ac-EAEELVVEEDVLEEEIEQLEERNYALRKEIEDLQ-NH2
notes: linear form of the pair HW16/HW17; NΔ20 CΔ9; source: synthetic peptide (Fmoc SPPS, RP-HPLC purified)
B7: HW17 (peptide)
peptide: Ac-EAEELVVEEDVLEEEIEQLEERNYALRKEIEDLQ-NH2
modifications: lactam 28-32
notes: cyclized form of the pair HW16/HW17; NΔ20 CΔ9; source: synthetic peptide (Fmoc SPPS, on-resin lactamization, RP-HPLC purified)
B8: HW18 (peptide)
peptide: Ac-KEAEDLVVEEDVLEEEIEQLEERNYALRKEIKDLQDQ-NH2
notes: linear form of the pair HW18/HW19; NΔ19 CΔ7; source: synthetic peptide (Fmoc SPPS, RP-HPLC purified)
B9: HW19 (peptide)
peptide: Ac-KEAEDLVVEEDVLEEEIEQLEERNYALRKEIKDLQDQ-NH2
modifications: lactam 1-5
notes: cyclized form of the pair HW18/HW19; NΔ19 CΔ7; source: synthetic peptide (Fmoc SPPS, on-resin lactamization, RP-HPLC purified)
B10: HW2 (peptide)
peptide: Ac-LARENEELEKEAEELVVEEDVLEEEIEQLEERNYALRKEIEDLQKQLEKL-NH2
notes: truncation NΔ10 CΔ3 of HW1; source: synthetic peptide (Fmoc SPPS, RP-HPLC purified)
B11: HW20 (peptide)
peptide: Ac-EAKELVDEEDVLEEEIEQLEERNYALRKEIEDLQKQ-NH2
notes: linear form of the pair HW20/HW21; NΔ20 CΔ7; source: synthetic peptide (Fmoc SPPS, RP-HPLC purified)
B12: HW21 (peptide)
peptide: Ac-EAKELVDEEDVLEEEIEQLEERNYALRKEIEDLQKQ-NH2
modifications: lactam 3-7
SMILES: CC[C@H](C)[C@H](NC(=O)[C@H](CCC(=O)O)NC(=O)[C@H](CCCCN)NC(=O)[C@H](CCCNC(=N)N)NC(=O)[C@H](CC(C)C)NC(=O)[C@H](C)NC(=O)[C@H](Cc1ccc(O)cc1)NC(=O)[C@H](CC(N)=O)NC(=O)[C@H](CCCNC(=N)N)NC(=O)[C@H](CCC(=O)O)NC(=O)[C@H](CCC(=O)O)NC(=O)[C@H](CC(C)C)NC(=O)[C@H](CCC(N)=O)NC(=O)[C@H](CCC(=O)O)NC(=O)[C@@H](NC(=O)[C@H](CCC(=O)O)NC(=O)[C@H](CCC(=O)O)NC(=O)[C@H](CCC(=O)O)NC(=O)[C@H](CC(C)C)NC(=O)[C@@H](NC(=O)[C@H](CC(=O)O)NC(=O)[C@H](CCC(=O)O)NC(=O)[C@H](CCC(=O)O)NC(=O)[C@@H]1CC(=O)NCCCC[C@H](NC(=O)[C@H](C)NC(=O)[C@H](CCC(=O)O)NC(C)=O)C(=O)N[C@@H](CCC(=O)O)C(=O)N[C@@H](CC(C)C)C(=O)N[C@@H](C(C)C)C(=O)N1)C(C)C)[C@@H](C)CC)C(=O)N[C@@H](CCC(=O)O)C(=O)N[C@@H](CC(=O)O)C(=O)N[C@@H](CC(C)C)C(=O)N[C@@H](CCC(N)=O)C(=O)N[C@@H](CCCCN)C(=O)N[C@@H](CCC(N)=O)C(N)=O
notes: cyclized form of the pair HW20/HW21; NΔ20 CΔ7; source: synthetic peptide (Fmoc SPPS, on-resin lactamization, RP-HPLC purified)
B13: HW22 (peptide)
peptide: Ac-EAEELVVEEKVLEDEIEQLEERNYALRKEIEDLQKQ-NH2
notes: linear form of the pair HW22/HW23; NΔ20 CΔ7; source: synthetic peptide (Fmoc SPPS, RP-HPLC purified)
B14: HW24 (peptide)
peptide: Ac-EAEELVVEEDVLEEEIKQLEDRNYALRKEIEDLQKQ-NH2
notes: linear form of the pair HW24/HW25; NΔ20 CΔ7; source: synthetic peptide (Fmoc SPPS, RP-HPLC purified)
B15: HW25 (peptide)
peptide: Ac-EAEELVVEEDVLEEEIKQLEDRNYALRKEIEDLQKQ-NH2
modifications: lactam 17-21
SMILES: CC[C@H](C)[C@H](NC(=O)[C@H](CCC(=O)O)NC(=O)[C@H](CCCCN)NC(=O)[C@H](CCCNC(=N)N)NC(=O)[C@H](CC(C)C)NC(=O)[C@H](C)NC(=O)[C@H](Cc1ccc(O)cc1)NC(=O)[C@H](CC(N)=O)NC(=O)[C@H](CCCNC(=N)N)NC(=O)[C@@H]1CC(=O)NCCCC[C@H](NC(=O)[C@@H](NC(=O)[C@H](CCC(=O)O)NC(=O)[C@H](CCC(=O)O)NC(=O)[C@H](CCC(=O)O)NC(=O)[C@H](CC(C)C)NC(=O)[C@@H](NC(=O)[C@H](CC(=O)O)NC(=O)[C@H](CCC(=O)O)NC(=O)[C@H](CCC(=O)O)NC(=O)[C@@H](NC(=O)[C@@H](NC(=O)[C@H](CC(C)C)NC(=O)[C@H](CCC(=O)O)NC(=O)[C@H](CCC(=O)O)NC(=O)[C@H](C)NC(=O)[C@H](CCC(=O)O)NC(C)=O)C(C)C)C(C)C)C(C)C)[C@@H](C)CC)C(=O)N[C@@H](CCC(N)=O)C(=O)N[C@@H](CC(C)C)C(=O)N[C@@H](CCC(=O)O)C(=O)N1)C(=O)N[C@@H](CCC(=O)O)C(=O)N[C@@H](CC(=O)O)C(=O)N[C@@H](CC(C)C)C(=O)N[C@@H](CCC(N)=O)C(=O)N[C@@H](CCCCN)C(=O)N[C@@H](CCC(N)=O)C(N)=O
notes: cyclized form of the pair HW24/HW25; NΔ20 CΔ7; source: synthetic peptide (Fmoc SPPS, on-resin lactamization, RP-HPLC purified)
B16: HW28 (peptide)
peptide: Ac-EAEELVVEEDVLEEEIEQLEERNYALRKEIKDLQDQ-NH2
notes: linear form of the pair HW28/HW29; NΔ20 CΔ7; source: synthetic peptide (Fmoc SPPS, RP-HPLC purified)
B17: HW26 (peptide)
peptide: Ac-EAEELVVEEDVLEEEIEQLEEKNKALKDEIEDLQKQY-NH2
notes: linear form of the pair HW26/HW27; NΔ20 CΔ7; source: synthetic peptide (Fmoc SPPS, RP-HPLC purified)

Target: T1, cJun (60 amino acid construct encompassing the entire bZIP domain) (UniProt P05412 252-315)
Assay: CD thermal denaturation; peptide (5 μM) with cJun (5 μM); ellipticity at 222 nm, 1°C to 90°C; 20 mM potassium phosphate, 150 mM potassium fluoride, 2 mM TCEP, pH 7.4; two-state fit gives the Tm of the peptide-cJun heterodimer; duplicate experiments
Settings: both partners purified

T1 sequence (P05412 252-315): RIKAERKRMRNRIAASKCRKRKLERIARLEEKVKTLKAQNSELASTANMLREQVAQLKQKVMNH

| Binder | Tm of the peptide-cJun heterodimer |
| --- | --- |
| B1 | 62.1 °C |
| B2 | 64.3 °C |
| B3 | 67.2 °C |
| B4 | 68.3 °C |
| B5 | 52.5 °C |
| B6 | 53.8 °C |
| B7 | 57.2 °C |
| B8 | 56.5 °C |
| B9 | 58.5 °C |
| B10 | 68.5 °C |
| B11 | 57.5 °C |
| B12 | 59.4 °C |
| B13 | 54.9 °C |
| B14 | 55.5 °C |
| B15 | 60.9 °C |
| B16 | 55.6 °C |
| B17 | 56.2 °C |

Target: T1, cJun (60 amino acid construct …)
Assay: cell-based or functional assay
Settings: not given

| Binder | IC50 CD: peptide added to pre-incubated cJun (20 μM) and TRE DNA (5 μM); blocks cJun/TRE DNA binding |
| --- | --- |
| B1 | 94.6 µM |
| B2 | 83.9 µM |
| B3 | 73.5 µM |
| B4 | 69 µM |
| B5 | 118 µM |
| B6 | 725 µM |
| B7 | 140 µM |
| B8 | 115 µM |
| B9 | 92.5 µM |
| B10 | 16.6 µM |
| B11 | 100 µM |
| B12 | 81.1 µM |
| B13 | 114 µM |
| B14 | 98.9 µM |
| B15 | 94.4 µM |
| B16 | 101 µM |
| B17 | 121 µM |

— article PMC9582194, “The effect of helix-inducing constraints and downsizing upon a transcription block survival-derived functional cJun antagonist” (Cell Reports. Physical Science, 2022)
